Results published in PMC5561112, “Thermodynamic and Kinetic Analyses of Iron Response Element (IRE)-mRNA Binding to Iron Regulatory Protein, IRP1”.

What was measured:
Conditions in all cases: protein: recombinant; label: 5' fluorescein; hairpin
[1] = biological target: T1, IRP1 (iron regulatory protein 1) (rabbit, UniProt Q01059 1-889); assay: fluorescence anisotropy; 25 °C, no Mn2+; 40 mM HEPES pH 7.2, 100 mM KCl, 5-30 °C, ±50 µM Mn2+; labeled RNA 50 nM or 100 nM (Methods)
T1 sequence: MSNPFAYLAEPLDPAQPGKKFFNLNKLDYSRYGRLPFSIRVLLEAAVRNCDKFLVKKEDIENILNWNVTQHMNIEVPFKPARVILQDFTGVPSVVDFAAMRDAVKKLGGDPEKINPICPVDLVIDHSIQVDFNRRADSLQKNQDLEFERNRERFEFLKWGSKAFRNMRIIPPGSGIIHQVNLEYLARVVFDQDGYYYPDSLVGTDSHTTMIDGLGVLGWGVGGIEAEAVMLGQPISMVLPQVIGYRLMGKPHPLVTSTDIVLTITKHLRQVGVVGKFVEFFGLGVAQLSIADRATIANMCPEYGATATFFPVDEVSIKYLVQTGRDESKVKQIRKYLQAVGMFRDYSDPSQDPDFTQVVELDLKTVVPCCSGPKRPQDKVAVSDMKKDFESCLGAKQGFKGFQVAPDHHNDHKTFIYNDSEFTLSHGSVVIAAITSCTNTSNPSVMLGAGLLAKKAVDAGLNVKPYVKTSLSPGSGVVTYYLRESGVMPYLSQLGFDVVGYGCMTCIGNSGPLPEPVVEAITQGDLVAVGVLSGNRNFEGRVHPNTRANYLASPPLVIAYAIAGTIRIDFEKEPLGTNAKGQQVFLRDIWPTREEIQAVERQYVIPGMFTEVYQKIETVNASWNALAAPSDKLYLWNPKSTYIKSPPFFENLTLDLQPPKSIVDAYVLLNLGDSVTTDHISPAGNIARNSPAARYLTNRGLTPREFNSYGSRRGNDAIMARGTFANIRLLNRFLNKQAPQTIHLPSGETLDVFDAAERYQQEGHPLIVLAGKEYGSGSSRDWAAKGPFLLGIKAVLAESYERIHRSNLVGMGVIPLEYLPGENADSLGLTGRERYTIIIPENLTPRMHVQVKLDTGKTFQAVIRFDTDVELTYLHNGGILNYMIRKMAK

[2] = biological target: T1, IRP1 (iron regulatory protein 1); assay: fluorescence anisotropy; 5 °C, no Mn2+; 40 mM HEPES pH 7.2, 100 mM KCl, 5-30 °C, ±50 µM Mn2+; labeled RNA 50 nM or 100 nM (Methods)
[3] = biological target: T1, IRP1 (iron regulatory protein 1); assay: fluorescence anisotropy; 20 °C, no Mn2+; 40 mM HEPES pH 7.2, 100 mM KCl, 5-30 °C, ±50 µM Mn2+; labeled RNA 50 nM or 100 nM (Methods)
[4] = biological target: T1, IRP1 (iron regulatory protein 1); assay: fluorescence anisotropy; 30 °C, no Mn2+; 40 mM HEPES pH 7.2, 100 mM KCl, 5-30 °C, ±50 µM Mn2+; labeled RNA 50 nM or 100 nM (Methods)
[5] = biological target: T1, IRP1 (iron regulatory protein 1); assay: fluorescence anisotropy; 10 °C, no Mn2+; 40 mM HEPES pH 7.2, 100 mM KCl, 5-30 °C, ±50 µM Mn2+; labeled RNA 50 nM or 100 nM (Methods)
[6] = biological target: T1, IRP1 (iron regulatory protein 1); assay: fluorescence anisotropy; 15 °C, no Mn2+; 40 mM HEPES pH 7.2, 100 mM KCl, 5-30 °C, ±50 µM Mn2+; labeled RNA 50 nM or 100 nM (Methods)

Binder CCUCAUCUUUGUCAGUGCACAAAAUGGCG (structured_RNA) [ACO2 IRE-RNA (mitochondrial aconitase IRE)] has a Kd [1] of 129 ± 3.3 nM, a Kd [2] of 55.9 ± 3 nM and a Kd [3] of 101 ± 7 nM. For the same binder, the Kd [4] was 155 ± 4 nM, the Kd [5] was 69.6 ± 5 nM and the Kd [6] was 89 ± 3 nM.

For GUUCUUGCUUCAACAGUGUUUGAACGGAAC (structured_RNA) [FRT IRE-RNA (ferritin IRE)], the Kd [1] was 14.2 ± 0.3 nM, the Kd [2] was 4.6 ± 0.2 nM and the Kd [3] was 11.7 ± 0.4 nM. For the same binder, the Kd [4] was 19.2 ± 0.4 nM, the Kd [5] was 7 ± 0.2 nM and the Kd [6] was 8.6 ± 0.3 nM.
